The text below walks through data of patent US7572895B2, “Transferrin receptor antibodies” (Raven Biotechnologies, Inc., priority 2004, dated 2009).

Experiment [1] has as its system HCT15 tumor xenograft. The experiment can be described thus: Established HCT15 tumor xenograft model. Format: in vivo, mice. To be noted: antibody 500 ug twice weekly for four weeks; gemcitabine 120 mg/kg q3d ×2. How it is done:
For each experimental group, data is plotted until the first animal presents with a tumor greater than 1000 mm^3.
LUCA31 was particularly active in blocking the proliferation of the colon carcinoma cell line HCT15. […] In this study, groups of 15 mice were treated twice weekly with 500 ug of antibody for four weeks. Gemcitabine was dosed on a q3d ×2 schedule at 120 mg/kg, which is near the MTD. Treatment was initiated when tumor volumes averaged 70 mm^3. In FIG. 16A, the median tumor volumes are shown and in FIG. 16B, the mean tumor volumes with error bars are presented. In this experiment, the LUCA31 antibody produced a tumor growth delay of greater than 14 days, relative to the saline control. Gemcitabine produced a 20-day tumor growth delay and the combination of LUCA31 and gemcitabine produced a tumor growth delay of 18 days relative to gemcitabine alone.

In experiment [2] the target is human transferrin receptor, full length, on cells (human) (UniProt P02786). The experiment can be described thus: cell-based or functional assay.
Chain of UniProt P02786 (P02786 whole entry): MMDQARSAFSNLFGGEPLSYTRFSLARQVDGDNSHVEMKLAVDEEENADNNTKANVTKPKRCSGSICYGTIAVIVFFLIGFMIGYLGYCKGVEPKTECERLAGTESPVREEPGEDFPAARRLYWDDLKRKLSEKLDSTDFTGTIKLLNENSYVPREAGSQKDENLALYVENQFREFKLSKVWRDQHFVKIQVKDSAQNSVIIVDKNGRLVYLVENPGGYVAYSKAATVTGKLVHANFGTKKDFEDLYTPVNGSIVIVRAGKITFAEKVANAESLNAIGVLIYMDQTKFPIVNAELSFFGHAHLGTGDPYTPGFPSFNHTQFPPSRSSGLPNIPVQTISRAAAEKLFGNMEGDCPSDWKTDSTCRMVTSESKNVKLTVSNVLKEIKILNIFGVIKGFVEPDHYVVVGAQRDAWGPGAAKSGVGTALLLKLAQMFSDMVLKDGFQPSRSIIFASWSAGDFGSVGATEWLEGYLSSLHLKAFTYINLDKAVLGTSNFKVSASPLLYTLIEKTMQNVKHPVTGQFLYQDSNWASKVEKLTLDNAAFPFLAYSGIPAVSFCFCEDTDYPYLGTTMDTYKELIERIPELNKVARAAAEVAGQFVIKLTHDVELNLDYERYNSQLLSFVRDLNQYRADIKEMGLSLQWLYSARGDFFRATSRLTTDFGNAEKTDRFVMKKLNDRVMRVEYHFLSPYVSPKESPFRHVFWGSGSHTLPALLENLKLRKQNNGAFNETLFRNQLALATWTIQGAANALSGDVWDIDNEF

For the compound `Nc1ccn([C@@H]2O[C@H](CO)[C@@H](O)C2(F)F)c(=O)n1` [Gemcitabine, gemcitabine], the “tumor growth delay relative to the saline control” value in experiment [1] was found to be 20 days.
In experiment [2], “LUCA31 monoclonal antibody (mouse anti-human transferrin receptor antibody produced by hybridoma CA130.3.13C9.1A7, ATCC PTA-6055)” yielded a Maximum inhibition (% inhibition) of cell proliferation, Calu6 cells of 25%; a Maximum inhibition (% inhibition) of cell proliferation, Colo205 cells of 25%; a Maximum inhibition (% inhibition) of cell proliferation, LS174T cells of 35%; a Maximum inhibition (% inhibition) of cell proliferation, SW48 cells of 35%. In addition, in experiment [2], the growth inhibition (MTT), 786-O cells, LUCA31 at 20 ug/ml was 54%; the growth inhibition (MTT), Colo205 cells, LUCA31 at 20 ug/ml was determined as 37%; the growth inhibition (MTT), MDA-MB-175VII cells, LUCA31 at 20 ug/ml is 35%; the growth inhibition (MTT), SKMES-1 cells, LUCA31 at 20 ug/ml turned out to be 45%. The maximum inhibition of cell proliferation (tritiated thymidine incorporation), Calu-6 cells in experiment [2] was 45%.
In experiment [2], transferrin receptor antibody 42/6 gave a Maximum inhibition (% inhibition) of cell proliferation, Calu6 cells of 0%; a Maximum inhibition (% inhibition) of cell proliferation, Colo205 cells of 25%; a Maximum inhibition (% inhibition) of cell proliferation, SW48 cells of 0%.
